Experimental data reported in publication PMC10356863, “Architecture of the human G-protein-methylmalonyl-CoA mutase nanoassembly for B12 delivery and repair” (Nature Communications, 2023).
Numbering of substitutions follows the chain as printed.

Key:
Assay in all cases: cell-based or functional assay
[1] = target: T1, human MMUT R616C (patient variant) (human, UniProt P22033 33-750, R616C)
T1 sequence: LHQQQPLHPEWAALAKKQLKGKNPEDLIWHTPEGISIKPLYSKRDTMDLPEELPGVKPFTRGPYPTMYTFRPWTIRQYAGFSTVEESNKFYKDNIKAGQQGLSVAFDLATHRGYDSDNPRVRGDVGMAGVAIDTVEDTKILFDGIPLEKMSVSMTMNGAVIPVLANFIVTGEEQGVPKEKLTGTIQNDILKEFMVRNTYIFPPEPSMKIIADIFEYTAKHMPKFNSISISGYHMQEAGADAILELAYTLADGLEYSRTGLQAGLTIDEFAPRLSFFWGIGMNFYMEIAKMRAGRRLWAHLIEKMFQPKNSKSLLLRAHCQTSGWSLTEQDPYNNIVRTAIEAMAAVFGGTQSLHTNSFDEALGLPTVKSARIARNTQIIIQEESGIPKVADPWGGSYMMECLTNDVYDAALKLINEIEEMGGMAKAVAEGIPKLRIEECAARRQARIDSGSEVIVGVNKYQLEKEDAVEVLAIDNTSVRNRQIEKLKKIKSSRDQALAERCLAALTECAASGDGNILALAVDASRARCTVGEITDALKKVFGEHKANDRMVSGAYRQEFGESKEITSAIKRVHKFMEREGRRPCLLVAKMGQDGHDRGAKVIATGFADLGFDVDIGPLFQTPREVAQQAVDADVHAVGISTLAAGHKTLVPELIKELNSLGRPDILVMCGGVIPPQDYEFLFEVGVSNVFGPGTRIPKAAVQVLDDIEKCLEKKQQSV

[2] = target: T2, human MMUT R694W (patient variant) (human, UniProt P22033 33-750, R694W)
T2 sequence: T1 sequence with C584R, R662W

[3] = target: T3, human MMUT R228Q (patient variant) (human, UniProt P22033 33-750, R228Q)
T3 sequence: T1 sequence with R196Q, C584R

GAP activation: GTPase activity of MMAA in the presence of MMUT, fold attenuation against wild-type MMUT [1]: 7 fold
GAP activation: GTPase activity of MMAA in the presence of MMUT, fold attenuation against wild-type MMUT [2]: 12 fold
GAP activation: GTPase activity of MMAA in the presence of MMUT, fold attenuation against wild-type MMUT [3]: 12 fold
B1: human MMAA (G-protein chaperone of MMUT), wild type (enzyme)
chain: KDHTEGLSDKEQRFVDKLYTGLIQGQRACLAEAITLVESTHSRKKELAQVLLQKVLLYHREQEQSNKGKPLAFRVGLSGPPGAGKSTFIEYFGKMLTERGHKLSVLAVDPSSCTSGGSLLGDKTRMTELSRDMNAYIRPSPTRGTLGGVTRTTNEAILLCEGAGYDIILIETVGVGQSEFAVADMVDMFVLLLPPAGGDELQGIKRGIIEMADLVAVTKSDGDLIVPARRIQAEYVSALKLLRKRSQVWKPKVIRISARSGEGISEMWDKMKDFQDLMLASGELTAKRRKQQKVWMWNLIQESVLEHFRTHPTVREQIPLLEQKVLIGALSPGLAADFLLKAFKSRD
